Data reported in paper PMC10487846.

Legend:
[1] = target: recombinant wild type (wt) XptA2 (Xenorhabdus nematophilus); experiment: cryo-EM structure; single-particle cryo-EM of wt XptA2, pre-pore state; first map 7.2 Å, final map 3.1 Å (3.02 Å in the methods); 10 mM Tris, 100 mM NaCl, pH 7.5; C5 symmetry
[2] = target: seleno-methionine (SeMet) labeled XptA2 (Xenorhabdus nematophilus); experiment: crystal structure; SeMet XptA2 crystals grown in 0.1 M HEPES pH 7.5, 0.2 M NaCl, 16-20% PEG-3000; MR-SAD phasing with the 7 Å cryo-EM map; 3.1 Å; pre-pore state

Q: recombinant wild type (wt) XptA2 was tested. Which stoichiometry N [1] did it give?
A: The stoichiometry N was 5.

Q: How did the stoichiometry N [2] turn out when seleno-methionine (SeMet) labeled XptA2 was run?
A: Its stoichiometry N is 5.
